Experiments:
[1] = In vitro fluorescence assays of SAH biosensors (turn-on, ligand selectivity); format: biochemical
Description: Other conditions, including temperature, concentrations of MgCl2, DFHBI, ligand or RNA, were varied in different experiments and are indicated in the figures. The RNA was renatured in buffer at 70° C. for 3 min and cooled to ambient temperature for 5 min prior to addition to the reaction solution. DFHBI was added to a solution containing buffer and ligand, and then RNA was added at the end before fluorescence measurement. Binding reactions were performed in 100 μL volumes and were incubated at the indicated temperature in a Corning Costar 3915 96-well black plate until equilibrium was reached, which in some cases takes 30 to 60 minutes. The fluorescence emission was measured using a Molecular Devices SpectraMax Paradigm Multi-Mode detection platform plate reader (Sunnyvale, Calif.) with the following instrument parameters: 448 nm excitation, 506 nm emission.

[2] = target: T1, protein lysine MTase SET7/9 (Homo sapiens, UniProt Q8WTS6); assay: Protein MTase SET7/9 activity assay with SAH biosensor; format: biochemical
T1 construct: purchased New England Biolabs Inc (Ipswich, Mass.)
T1 sequence (Q8WTS6 1-366): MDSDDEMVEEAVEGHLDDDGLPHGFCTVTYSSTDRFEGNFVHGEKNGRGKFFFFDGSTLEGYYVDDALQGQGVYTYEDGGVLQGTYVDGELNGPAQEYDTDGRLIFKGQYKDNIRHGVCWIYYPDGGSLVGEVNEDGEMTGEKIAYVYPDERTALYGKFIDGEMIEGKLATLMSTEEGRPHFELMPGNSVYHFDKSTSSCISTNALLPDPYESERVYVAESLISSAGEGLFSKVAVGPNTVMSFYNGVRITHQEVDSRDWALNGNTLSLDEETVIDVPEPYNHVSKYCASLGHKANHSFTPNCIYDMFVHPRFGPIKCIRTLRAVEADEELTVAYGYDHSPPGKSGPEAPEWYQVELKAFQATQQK
Description: To initiate the enzyme reaction, 5 μL of H3 peptide substrate (N′-[…]-LAGGKKC-C′) (SEQ ID NO:132) was added to 5 μL of 2×enzyme reaction solution containing SET7/9, SAM, and NEB HMT buffer. Generally, final concentrations are 50 μM H3 peptide, 0.1 U/μL SET7/9, 25 μM SAM, and lx NEB HMT buffer (50 mM Tris, pH 9.0, 5 mM MgCl2, and 4 mM DTT). The reaction solution was incubated at 37° C. for 2 hours to allow the enzyme reaction to proceed.
To initiate the fluorescent biosensor reaction, 10 μL of the enzyme reaction was added to 90 μL of biosensor reaction solution containing renatured RNA, DFHBI, and buffer. […] For the SAH control, SAH was added to a final concentration of 0.5 μM in place of the enzyme reaction. In vitro fluorescence assays were conducted as described above.

SET7/9 = target: T2, SET7/9 (Homo sapiens, UniProt Q8WTS6); assay: High-throughput screening (HTS) assay of SET7/9 activity and inhibition, Z′ score; format: biochemical; conditions: 384-well plate, 16 replicates
T2 construct: purchased New England Biolabs Inc (Ipswich, Mass.)
T2 sequence (Q8WTS6 1-366): T1 sequence (Q8WTS6 1-366)
Description: For HTS experiments, samples were dispensed into a Grenier 781077 384-well flat bottom black plate using an Eppendorf Repeater […] pipetter to dispense reaction components. Z' scores were calculated from 16 well replicates in the 384-well plate. For the HTS SET7/9 activity assay, 3 μL of H3 peptide or water was added to 9 μL of reaction solution containing SET7/9 MTase, SAM, and NEB HMT Reaction Buffer in each well. Final concentrations are: 0.25 U/10 μL SET7/9, 25 μM SAM, 50 μM H3 peptide and 1×NEB HMT Reaction Buffer (50 mM Tris, pH 9.0, 5 mM MgCl2, and 4 mM DTT). After 30 min incubation at 37° C., to initiate the fluorescent biosensor reaction, 18 μL of biosensor reaction solution containing renatured RNA, DFHBI, and buffer was added to each well. […] In vitro fluorescence assays were conducted as described above. For the HTS SET7/9 inhibition assay, 4.5 μL of sinefungin or water was added to 8 μL of reaction solution containing SET7/9 MTase, and NEB HMT Reaction Buffer in each well. After 15 minutes incubation at 37° C., methylation reaction was initiated by adding 2.5 μL solution containing both SAM and H3 peptide. Final concentrations are: 0.25 U/10 μL SET7/9, 25 μM SAM, 50 μM H3 peptide, 300 μM sinefungin and 1×NEB HMT Reaction Buffer (50 mM Tris, pH 9.0, 5 mM MgCl2, and 4 mM DTT). After 30 min incubation at 37° C., to initiate the fluorescent biosensor reaction, 15 μL of biosensor reaction solution containing renatured RNA, DFHBI, and buffer was added to each well. […] In vitro fluorescence assays were conducted as described above.

E. coli BL21* cells = assay: In vivo fluorescence of RNA aptamers by flow cytometry; format: cell-based; conditions: 100 μM DFHBI
Description: To compare the fluorescence of Spinach2 and cpSpinach2 in live cells, pET31b plasmids encoding the RNA aptamers in a tRNA scaffold were transformed into E. coli BL21* cells. Following IPTG induction of transcription, cells were incubated with DFHBI and fluorescence was quantitated by flow cytometry. The mean cellular fluorescence was measured as a function of increasing DFHBI concentration in the media, in order to determine the optimal conditions for aptamer fluorescence. Unexpectedly, full saturation of fluorescence was not observed, even when E. coli cells were incubated in media containing up to 800 μM DFHBI (FIG. 5). However, the non-specific fluorescence signal increased when DFHBI concentration exceeded 100 μM. Thus, to balance higher fluorescence activation and lower non-specific background, a concentration of 100 μM was adopted for further experiments. Under these conditions, cellular fluorescence activation for Spinach2 and cpSpinach2 was on average 34 and 22-fold over background, respectively (FIG. 6). Thus, cpSpinach2 is a functional alternative to Spinach2. Although it currently performs slightly poorer in terms of fluorescence activation in live cells, improvements are likely possible through directed mutagenesis for higher thermal stability, improved folding efficiency and less Mg^2+ dependency. […]

[3] = test system: E. coli BL21* wild-type and ΔMTAN cells; assay: Live cell detection of SAH accumulation, wild-type versus MTAN knockout, flow cytometry; format: cell-based
Description: A Targetron® Gene Knockout System (Sigma-Aldrich) was used to knock out the MTAN gene from E. coli BL21*, following manufacturer protocols.
Preparation of cell samples for flow cytometry was carried out by inoculating 2 mL of auto-induction media/Carb (F. Studier, Protein Expression and Purification 2005, 41, 207-234) with E. coli BL21* cells from colonies grown on an LB/Carb culture plate, containing pET31b plasmids encoding RNA aptamers. […] Cells were then grown aerobically overnight to saturation (0D600 varied from 5 to 10) and diluted to OD600˜0.01-0.05 in M9 minimal media (pH ˜6.0) with 100 μM DFHBI-1T. Cellular fluorescence was measured for 30,000 cells using a Life Technologies Attune N×T Acoustic Focusing Cytometer.

E. coli cells = assay: RNA stability in E. coli, cpSpinach2 fluorescence in M9 minimal media; format: cell-based; conditions: M9 minimal media without inducers, monitored for 4 h
Description: Fluorescence of cpSpinach2-expressing E. coli cells grown 16 hrs in auto-induction media, then pelleted and re-suspended in M9 minimal media without RNA transcription inducers.
RNA stability in E. coli: For the time-course experiment shown in FIG. 4D, E. coli cells from overnight culture (16 h post-inoculation and induction) were pelleted and re-suspended in M9 minimal media without transcriptional inducers (lactose). To analyze the stability of RNA levels under these conditions, E. coli cells expressing cpSpinach2 were processed using the same procedures and fluorescence was monitored for 4 h. Fluorescence readings remained stable for up to 3 h in M9 minimal media. Therefore, we expect that the related biosensor levels would be stable in the same time-frame, so the fluorescence change shown in FIG. 4D reflects the dynamic change in SAH levels.

B1: Aeh1-4: SAH biosensor, SEQ ID NO: 44 (nucleic acid)
chain: CGCCCCGAGGAGCGCTGCAACAGGTTGTTGAGTAGAGTGTGAGCTCCGTAACTAGTTACATCGCAAGATGTAACTGAATGAAATGGTGAAGGACGGGTCCACCTGCCAGGCTCGGGGATGGCGCCCCATCGTTCCAACGGCGCTCAGCGAAA
- fluorescence response to SAH at low magnesium ([1]; 3 mM magnesium): decreased fluorescence turn-on
- fluorescence turn-on ([1]; 37° C., 10 mM Mg^2+): around 5 fold
- change of fluorescence turn-on with increasing magnesium ([1]; magnesium from 1 to 20 mM): marked improvement in fluorescence turn-on
- fluorescence response to SET7/9 activity [2]: displayed a fluorescence response to SET7/9 activity
- Z′ score, substrate screen (SET7/9): 0.74
- Z′ score, inhibitor screen (SET7/9; 300 μM sinefungin): 0.44

B2: cpSpinach2: circular permutant of the Spinach2 aptamer, SEQ ID NO: 93 (nucleic acid)
chain: GCAGCCTACTTGTTGAGTAGAGTGTGAGCTCCGTAACTAGTTACATCGCAAGATGTAACTGAATGAAATGGTGAAGGACGGGTCCAGTAGGCTGC
modifications: expressed or natural sequence
- cellular fluorescence activation over background (E. coli BL21* cells): 22 fold
- fold change in fluorescence between wild-type and MTAN knockout strain 2 ([3]; E. coli BL21* MTAN knockout strain 2): 1.4 ×
- fluorescence signal in ΔMTAN versus wild-type cells ([3]; E. coli BL21*, flow cytometry): no significant difference in signal
- time fluorescence readings remained stable (E. coli cells): up to 3 h
